Laboratory results: the supplement of paper PMC12855868

B1: library; numbered along this chain (parent)
chain: MAAAGGARLLRAASAVLGGPAGRWLHHAGSRAGSSGLLRNRGPGGSAEASRSLSVSARARSSSEDKITVHFINRDGETLTTKGKVGDSLLDVVVENNLDIDGFGACEGTLACSTCHLIFEDHIYEKLDAITDEENDMLDLAYGLTDRSRLGCQICLTKSMDNMTVRVPETVADARQSIDVGKTS

Variants of: B1
Experiment: scaled log2 fold change in cell abundance, elesclomol vs control (0 = silent mean, 1 = nonsense mean) (scaled log2 ratio); higher = higher viability under elesclomol (loss of FDX1 cuproptosis function)
Conditions: glucose 10 mM
[1] = with ABC1 FDX1 KO, elesclomol 5 nM, 14 days
[2] = with HEK293T FDX1 KO, elesclomol 40 nM, 11 days
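Also: variant abundance is its share of total variant reads in each endpoint sample, from next-generation sequencing of the integrated ORF PCR-amplified out of genomic DNA.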

Row | Variant | scaled log2 fold change [1] | scaled log2 fold change [2]
1 | MAAAGGARLLRAASAVLGGPAGRWLHHAGSRAGSSGLLRNRGPGGSAEASRSLSVSARARSSSEDKITVHFINRDGETLTTKGKVGDSLLDVVVENNLDIDGFGACEGTLACSTCHLIFEDHIYEKLDAITDEENDMLDWAYGLTDRSRLGCQICLTKSMDNMTVRVPETVADARQSIDVGKTS | -0.629 | 0.639
2 | MAAAGGARLLRAASAVLGGPAGRWLHHAGSRAGSSGLLRNRGPGGSAEASRSLSVSARARSSSEDKITVHFINRDGETLTTKGKVGDSLLDVVVENNLDIDGFGACEGTLACSTCHLIFEDHIYEKLDAITDEENDMLDMAYGLTDRSRLGCQICLTKSMDNMTVRVPETVADARQSIDVGKTS | 0.393 | 0.793
3 | MAAAGGARLLRAASAVLGGPAGRWLHHAGSRAGSSGLLRNRGPGGSAEASRSLSVSARARSSSEDKITVHFINRDGETLTTKGKVGDSLLDVVVENNLDIDGFGACEGTLACSTCHLIFEDHIYEKLDAITDEENDMLDKAYGLTDRSRLGCQICLTKSMDNMTVRVPETVADARQSIDVGKTS | -0.153 | -0.169
4 | MAAAGGARLLRAASAVLGGPAGRWLHHAGSRAGSSGLLRNRGPGGSAEASRSLSVSARARSSSEDKITVHFINRDGETLTTKGKVGDSLLDVVVENNLDIDGFGACEGTLACSTCHLIFEDHIYEKLDAITDEENDMLDYAYGLTDRSRLGCQICLTKSMDNMTVRVPETVADARQSIDVGKTS | -0.351 | -0.373
5 | MAAAGGARLLRAASAVLGGPAGRWLHHAGSRAGSSGLLRNRGPGGSAEASRSLSVSARARSSSEDKITVHFINRDGETLTTKGKVGDSLLDVVVENNLDIDGFGACEGTLACSTCHLIFEDHIYEKLDAITDEENDMLDIAYGLTDRSRLGCQICLTKSMDNMTVRVPETVADARQSIDVGKTS | -0.0613 | 0.225
6 | MAAAGGARLLRAASAVLGGPAGRWLHHAGSRAGSSGLLRNRGPGGSAEASRSLSVSARARSSSEDKITVHFINRDGETLTTKGKVGDSLLDVVVENNLDIDGFGACEGTLACSTCHLIFEDHIYEKLDAITDEENDMLDHAYGLTDRSRLGCQICLTKSMDNMTVRVPETVADARQSIDVGKTS | -1.29 | 0.795
7 | MAAAGGARLLRAASAVLGGPAGRWLHHAGSRAGSSGLLRNRGPGGSAEASRSLSVSARARSSSEDKITVHFINRDGETLTTKGKVGDSLLDVVVENNLDIDGFGACEGTLACSTCHLIFEDHIYEKLDAITDEENDMLDTAYGLTDRSRLGCQICLTKSMDNMTVRVPETVADARQSIDVGKTS | -0.682 | -0.194
8 | MAAAGGARLLRAASAVLGGPAGRWLHHAGSRAGSSGLLRNRGPGGSAEASRSLSVSARARSSSEDKITVHFINRDGETLTTKGKVGDSLLDVVVENNLDIDGFGACEGTLACSTCHLIFEDHIYEKLDAITDEENDMLDQAYGLTDRSRLGCQICLTKSMDNMTVRVPETVADARQSIDVGKTS | 0.178 | -1.41
9 | MAAAGGARLLRAASAVLGGPAGRWLHHAGSRAGSSGLLRNRGPGGSAEASRSLSVSARARSSSEDKITVHFINRDGETLTTKGKVGDSLLDVVVENNLDIDGFGACEGTLACSTCHLIFEDHIYEKLDAITDEENDMLDSAYGLTDRSRLGCQICLTKSMDNMTVRVPETVADARQSIDVGKTS | -0.172 | –
10 | MAAAGGARLLRAASAVLGGPAGRWLHHAGSRAGSSGLLRNRGPGGSAEASRSLSVSARARSSSEDKITVHFINRDGETLTTKGKVGDSLLDVVVENNLDIDGFGACEGTLACSTCHLIFEDHIYEKLDAITDEENDMLDRAYGLTDRSRLGCQICLTKSMDNMTVRVPETVADARQSIDVGKTS | -0.341 | -0.397
11 | MAAAGGARLLRAASAVLGGPAGRWLHHAGSRAGSSGLLRNRGPGGSAEASRSLSVSARARSSSEDKITVHFINRDGETLTTKGKVGDSLLDVVVENNLDIDGFGACEGTLACSTCHLIFEDHIYEKLDAITDEENDMLDNAYGLTDRSRLGCQICLTKSMDNMTVRVPETVADARQSIDVGKTS | 0.179 | –
12 | MAAAGGARLLRAASAVLGGPAGRWLHHAGSRAGSSGLLRNRGPGGSAEASRSLSVSARARSSSEDKITVHFINRDGETLTTKGKVGDSLLDVVVENNLDIDGFGACEGTLACSTCHLIFEDHIYEKLDAITDEENDMLDVAYGLTDRSRLGCQICLTKSMDNMTVRVPETVADARQSIDVGKTS | -0.00688 | 0.753
13 | MAAAGGARLLRAASAVLGGPAGRWLHHAGSRAGSSGLLRNRGPGGSAEASRSLSVSARARSSSEDKITVHFINRDGETLTTKGKVGDSLLDVVVENNLDIDGFGACEGTLACSTCHLIFEDHIYEKLDAITDEENDMLDPAYGLTDRSRLGCQICLTKSMDNMTVRVPETVADARQSIDVGKTS | 0.264 | 0.879
14 | MAAAGGARLLRAASAVLGGPAGRWLHHAGSRAGSSGLLRNRGPGGSAEASRSLSVSARARSSSEDKITVHFINRDGETLTTKGKVGDSLLDVVVENNLDIDGFGACEGTLACSTCHLIFEDHIYEKLDAITDEENDMLDLCYGLTDRSRLGCQICLTKSMDNMTVRVPETVADARQSIDVGKTS | 0.249 | -1.33
15 | MAAAGGARLLRAASAVLGGPAGRWLHHAGSRAGSSGLLRNRGPGGSAEASRSLSVSARARSSSEDKITVHFINRDGETLTTKGKVGDSLLDVVVENNLDIDGFGACEGTLACSTCHLIFEDHIYEKLDAITDEENDMLDLDYGLTDRSRLGCQICLTKSMDNMTVRVPETVADARQSIDVGKTS | 0.178 | -0.445
16 | MAAAGGARLLRAASAVLGGPAGRWLHHAGSRAGSSGLLRNRGPGGSAEASRSLSVSARARSSSEDKITVHFINRDGETLTTKGKVGDSLLDVVVENNLDIDGFGACEGTLACSTCHLIFEDHIYEKLDAITDEENDMLDLEYGLTDRSRLGCQICLTKSMDNMTVRVPETVADARQSIDVGKTS | 0.304 | -0.297
17 | MAAAGGARLLRAASAVLGGPAGRWLHHAGSRAGSSGLLRNRGPGGSAEASRSLSVSARARSSSEDKITVHFINRDGETLTTKGKVGDSLLDVVVENNLDIDGFGACEGTLACSTCHLIFEDHIYEKLDAITDEENDMLDLFYGLTDRSRLGCQICLTKSMDNMTVRVPETVADARQSIDVGKTS | -0.22 | 1.03
